Source: patent US20180282719A1 (published 2018)
Read-outs that look alike come from different tables or passages of the source.

How the values were obtained:
[1] = biological target: T1, recombinant soluble human IL-6 receptor (SR344) (human, UniProt P08887 20-344, biotinylated (sites not given) where immobilized via streptavidin or used in phage ELISA); assay: SPR Biacore T100, biotinylated SR344 on streptavidin chip (model of membrane-type IL-6 receptor), antibody as analyte, 37 C
T1 construct: also called soluble IL-6 receptor; membrane-type IL-6 receptor (when biotinylated and immobilized on the chip)
T1 sequence (looked up): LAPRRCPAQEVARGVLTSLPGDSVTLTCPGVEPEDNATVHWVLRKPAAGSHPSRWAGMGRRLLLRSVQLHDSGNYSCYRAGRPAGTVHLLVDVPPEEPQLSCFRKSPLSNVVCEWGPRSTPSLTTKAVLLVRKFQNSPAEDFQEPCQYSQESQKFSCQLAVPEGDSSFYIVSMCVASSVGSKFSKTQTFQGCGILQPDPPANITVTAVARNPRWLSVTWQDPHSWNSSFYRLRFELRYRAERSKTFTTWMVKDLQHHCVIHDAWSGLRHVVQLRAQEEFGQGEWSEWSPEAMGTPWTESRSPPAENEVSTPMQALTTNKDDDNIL
Experimental: (§1) Binding to the membrane-type IL-6 receptor was evaluated by evaluating binding to the IL-6 receptor immobilized on a sensor chip. SR344 was biotinylated in accordance with a method known among persons with ordinary skill in the art, and the biotinylated SR344 was immobilized on the sensor chip via streptavidin using the affinity between streptavidin and biotin. All the measurements were carried out at 37° C. The mobile phase buffer was 10 mM MES (pH 5.8), 150 mM NaCl and 0.05% TWEEN® 20 (polyoxyethelene sorbitan monolaurate).
(§2) The pH-dependently-binding clones were injected under the condition of pH 7.4 to allow them to bind to SR344, and then, the pH-dependent dissociation of each clone at the pH of the mobile phase, pH 5.8, was observed. The results are shown in FIG. 21 (results for Fv1-M71, Fv1-M73, Fv3-M71, and Fv3-M73 are shown in FIG. 21, while results for other clones are shown in FIGS. 17 and 19). Analyses were carried out in the same manner as in Example 10 and the pH dependencies of the dissociation rate constants of all of the eleven types of clones are shown in Table 12.

[2] = biological target: T1, recombinant soluble human IL-6 receptor …; assay: SPR Biacore T100, biotinylated SR344 on streptavidin chip (model of membrane-type IL-6 receptor), antibody as analyte, bound at pH 7.4, dissociation at pH 5.8, 37 C
Experimental: as §1, §2

[3] = biological target: T1, recombinant soluble human IL-6 receptor …; assay: as above; remark: listed apart in the source
Experimental: as §1, §2

[4] = biological target: T1, recombinant soluble human IL-6 receptor …; assay: SPR Biacore T100, biotinylated SR344 on streptavidin chip (model of membrane-type IL-6 receptor), antibody as analyte, bound at pH 7.4, dissociation at pH 7.4, 37 C
Experimental: as §1, §2

[5] = biological target: T1, recombinant soluble human IL-6 receptor …; assay: SPR Biacore T100, antibody captured by anti-IgG gamma chain F(ab)2, SR344 analyte, pH 7.4, 37 C
Experimental: (§3) Kinetic analyses of antigen-antibody reactions at pH 7.4 were carried out on the four types of antibodies, i.e., the humanized PM1 antibody (wild type: WT), and […], H3pI/L73-IgG1, Fv2-IgG1, and Fv4-IgG1 constructed in Examples 2 and 10, by using a Biacore T100™ surface plasmon resonance system (GE Healthcare) (buffer: 10 mM MES (pH 7.4), 150 mM NaCl, 0.05% TWEEN® 20 (polyoxyethelene sorbitan monolaurate)). Each antibody was bound on a sensor chip on which an anti-IgG γ chain specific F(ab)₂ (Pierce) was immobilized by amine coupling, and then, SR344 adjusted to a concentration of 9.8 to 40 nM was injected thereto as an analyte. The association to and dissociation from SR344 were observed on a real-time basis for the pH-dependent-binding clones. All the measurements were carried out at 37° C. Association rate constants kₐ (1/Ms) and dissociation rate constants kd (1/s) were calculated using Biacore T100™ Evaluation Software (GE Healthcare), and dissociation constants KD (M) were calculated on the basis of those values (Table 7).
(§4) The association to and dissociation from SR344 were observed on a real-time basis using the same method as Example 10 for the eleven types of antibodies, humanized PM1 antibody (wild type: WT) and H3pI/L73-IgG1, Fv1-M71, Fv1-M73, Fv2-IgG1, Fv3-M71, Fv3-M73, Fv4-IgG1, Fv4-IgG2, Fv4-M58, and Fv4-M73, constructed as described above. The association rate constants kₐ (1/Ms) and dissociation rate constants kd. (1/s) were calculated by analysis in the same manner, and the dissociation constants KD (M) were calculated on the basis of those values (Table 11).

[6] = biological target: T1, recombinant soluble human IL-6 receptor …; assay: as above; remark: listed apart in the source
Experimental: as §3, §4

[7] = biological target: T1, recombinant soluble human IL-6 receptor …; assay: SPR Biacore T100, biotinylated SR344 on streptavidin chip (model of membrane-type IL-6 receptor), antibody as analyte, 37 C; remark: listed apart in the source
Experimental: as §1, §2

[8] = biological target: T1, recombinant soluble human IL-6 receptor …; assay: SPR Biacore T100, biotinylated SR344 on streptavidin chip (model of membrane-type IL-6 receptor), antibody as analyte, bound at pH 7.4, dissociation at pH 7.4, 37 C; remark: listed apart in the source
Experimental: as §1, §2

Row | Binder | kd (pH 5.8)/kd (pH 7.4) [1] | koff [2] | koff [3] | koff [4] | Kd [5] | koff [5] | kon [5] | Kd [6] | koff [6] | kon [6] | kd (pH 5.8)/kd (pH 7.4) [7] | koff [8]
1 | Fv4-M58 (antibody, VH3-M58 / VL3-CK) heavy: QVQLQESGPGLVKPSETLSLTCAVSGHSISHDHAWSWVRQPPGEGLEWIGFISYSGITNYNPSLQGRVTISRDNSKNTLYLQMNSLRAEDTAVYYCARSLARTTAMDYWGEGTLVTVSSASTKGPSVFPLAPSSKSTSGGTAALGCLVKDYFPEPVTVSWNSGALTSGVHTFPAVLQSSGLYSLSSVVTVPSSNFGTQTYTCNVDHKPSNTKVDKTVERKSCVECPPCPAPPVAGPSVFLFPPKPKDTLMISRTPEVTCVVVDVSQEDPEVQFNWYVDGVEVHNAKTKPREEQFNSTFRVVSVLTVVHQDWLNGKEYKCKVSNKGLPAPIEKTISKTKGQPREPQVYTLPPSQEEMTKNQVSLTCLVKGFYPSDIAVEWESNGQPENNYKTTPPMLDSDGSFFLYSKLTVDKSRWQEGNVFSCSVMHEALHNHYTQKSLSLSP light: DIQMTQSPSSLSASVGDSVTITCQASTDISSHLNWYQQKPGKAPELLIYYGSHLLSGVPSRFSGSGSGTDFTFTISSLEAEDAATYYCGQGNRLPYTFGQGTKVEIERTVAAPSVFIFPPSDEQLKSGTASVVCLLNNFYPREAKVQWKVDNALQSGNSQESVTEQDSKDSTYSLSSTLTLSKADYEKHKVYACEVTHQGLSSPVTKSFNRGEC | 17.6 | 0.0095 s⁻¹ | 0.0095 s⁻¹ | 0.00054 s⁻¹ | 1.4 nM | 0.0011 s⁻¹ | 830000 M⁻¹ s⁻¹ | 1.4 nM | 0.0011 s⁻¹ | 830000 M⁻¹ s⁻¹ | 17.6 | 0.00054 s⁻¹
2 | Fv4-IgG2 (antibody, VH3-IgG2deltaGK / VL3-CK; also called Fv4-IgG2deltaGK) heavy: QVQLQESGPGLVKPSETLSLTCAVSGHSISHDHAWSWVRQPPGEGLEWIGFISYSGITNYNPSLQGRVTISRDNSKNTLYLQMNSLRAEDTAVYYCARSLARTTAMDYWGEGTLVTVSSASTKGPSVFPLAPCSRSTSESTAALGCLVKDYFPEPVTVSWNSGALTSGVHTFPAVLQSSGLYSLSSVVTVPSSNFGTQTYTCNVDHKPSNTKVDKTVERKCCVECPPCPAPPVAGPSVFLFPPKPKDTLMISRTPEVTCVVVDVSHEDPEVQFNWYVDGVEVHNAKTKPREEQFNSTFRVVSVLTVVHQDWLNGKEYKCKVSNKGLPAPIEKTISKTKGQPREPQVYTLPPSREEMTKNQVSLTCLVKGFYPSDIAVEWESNGQPENNYKTTPPMLDSDGSFFLYSKLTVDKSRWQQGNVFSCSVMHEALHNHYTQKSLSLSP light: DIQMTQSPSSLSASVGDSVTITCQASTDISSHLNWYQQKPGKAPELLIYYGSHLLSGVPSRFSGSGSGTDFTFTISSLEAEDAATYYCGQGNRLPYTFGQGTKVEIERTVAAPSVFIFPPSDEQLKSGTASVVCLLNNFYPREAKVQWKVDNALQSGNSQESVTEQDSKDSTYSLSSTLTLSKADYEKHKVYACEVTHQGLSSPVTKSFNRGEC | 17 | 0.018 s⁻¹ | 0.018 s⁻¹ | 0.001 s⁻¹ | 1.3 nM | 0.0012 s⁻¹ | 960000 M⁻¹ s⁻¹ | 1.3 nM | 0.0012 s⁻¹ | 960000 M⁻¹ s⁻¹ | 17 | 0.001 s⁻¹
3 | Fv4-M73 (antibody, VH3-M73 / VL3-CK) heavy: QVQLQESGPGLVKPSETLSLTCAVSGHSISHDHAWSWVRQPPGEGLEWIGFISYSGITNYNPSLQGRVTISRDNSKNTLYLQMNSLRAEDTAVYYCARSLARTTAMDYWGEGTLVTVSSASTKGPSVFPLAPSSKSTSGGTAALGCLVKDYFPEPVTVSWNSGALTSGVHTFPAVLQSSGLYSLSSVVTVPSSNFGTQTYTCNVDHKPSNTKVDKTVERKSCVECPPCPAPPVAGPSVFLFPPKPKDTLMISRTPEVTCVVVDVSQEDPEVQFNWYVDGVEVHNAKTKPREEQFNSTFRVVSVLTVVHQDWLNGKEYKCKVSNKGLPAPIEKTISKTKGQPREPQVYTLPPSQEEMTKNQVSLTCLVKGFYPSDIAVEWESNGQPENNYKTTPPMLDSDGSFFLYSKLTVDKSRWQEGNVFSCSVMHEALHAHYTQKSLSLSP light: DIQMTQSPSSLSASVGDSVTITCQASTDISSHLNWYQQKPGKAPELLIYYGSHLLSGVPSRFSGSGSGTDFTFTISSLEAEDAATYYCGQGNRLPYTFGQGTKVEIERTVAAPSVFIFPPSDEQLKSGTASVVCLLNNFYPREAKVQWKVDNALQSGNSQESVTEQDSKDSTYSLSSTLTLSKADYEKHKVYACEVTHQGLSSPVTKSFNRGEC | 10.1 | 0.0051 s⁻¹ | 0.0051 s⁻¹ | 0.00051 s⁻¹ | 1.4 nM | 0.001 s⁻¹ | 750000 M⁻¹ s⁻¹ | 1.4 nM | 0.001 s⁻¹ | 750000 M⁻¹ s⁻¹ | 10.1 | 0.00051 s⁻¹
